Where no end group is shown, it is not given here. The star is where a group is joined. Biotin = O=C1N[C@H]2[C@H](CS[C@H]2CCCCC(=O)*)N1
T1: Peptide 3: Biotin-ATNMDSSHSIT (human)
T1 peptide: Biotin-ATNMDSSHSIT

B1: VB1-008 monoclonal antibody (antibody, human IgG1, V domains shown)
VH: QVQLQELGPRLVRPSQTLILTCTVSGGSVSGDEYYWSWLRQTPGKGLEWIGYMSYRGSSYYSPSLQSRVTIAVDRSKNEFSLKLTSVTAADAAVYFCARKYCGGDCRSGFDIWGRGTMVTVAS
VL: YELTQPPSVSVSPGQKAFITCSGDNLGNKYVCWYQQKPGQSPVLVIYEDTKRPSGIPERFSASNSGNTATLTISGTQPIDEADYYCQAWDSRTEIFGTGTKVTVLS
notes: also called 17P2/C12
B2: Peptide 1: Biotin-STDRIPATNMD (peptide)
peptide: Biotin-STDRIPATNMD
B3: Negative control peptide: Biotin-AVEDRKPSGLN (peptide)
peptide: Biotin-AVEDRKPSGLN

Legend:
[1] = target: B2; test: ELISA on peptide-coated plates
Protocol: (§1) Peptide solutions were diluted 1-in-100 with Hank's buffered saline solution (HBSS) containing 0.5% formaldehyde. 10Q̂iL of diluted peptide solution was distributed to each well in a 96-well plate. The plates were incubated at room temperature for 1 hour. The supernatant was removed and the plates were placed uncovered in a 37° C. incubator for 16-18 hours. The peptide-coated plates were placed in plastic bags and stored at 2-8° C. until required.
(§2) Following overnight incubation of the peptide-coated plates, 300 μL of wash buffer (PBS containing 0.5% Tween20) was manually added to each plate, with the help of a repeator pipette equipped with an 8-channel adaptor. The contents of the plates were discarded; the plates were inverted and patted on 3-4 inches of paper towel to remove excess liquid. The above steps were repeated two more times.
(§3) The plates were washed as previously described with the wash buffer (PBS containing 0.5% Tween 20). The plates were incubated with 1:6000 dilution of anti-human IgG-HRP for one hour at room temperature. The plates were washed as previously described. 100 μL of TMB substrate (TMB peroxidase substrate KPL cat #50-76-00) was added to each well and incubated for 5-10 minutes in the dark. The reaction was terminated by adding 100 μL of 1M phosphoric acid to each well. The optical density was measured at 450 nm using an ELISA plate reader.

[2] = target: B3; test: ELISA on peptide-coated plates
Protocol: as §1, §2, §3

[3] = target: T1, Peptide 3: Biotin-ATNMDSSHSIT; test: ELISA on peptide-coated plates, 75 µg/mL VB1-008
Protocol: as §1, §3

[4] = target: B1; test: peptide competition, flow cytometry on MDA-MB-435S cells

Row | Binder | binding result [1] | binding result [2] | binding result [3] | binding result [4]
1 | B1 | no binding (tested: 75 µg/mL VB1-008) | no binding (tested: 75 µg/mL VB1-008) | binds | –
2 | B2 | – | – | – | no binding
3 | B3 | – | – | – | no binding

Reference: patent publication US20130217865A1 (VIVENTIA BIOTECHNOLOGIES, published 2013)
